First the molecules themselves.
B1: Ephrin-B1 (Xenopus laevis (African clawed frog)), O13097 (parent)
chain: MEGLRRLLGLLLVLYRLCSALGKNLEPVTWNSQNPRFISGKGLVLYPEIGDRLDIICPKGDSSQPYEYYKLYMVRRDQLEACSTVIDPNVLVTCNQPGKEYRFTIKFQEFSPNYMGLEFRRNQDYYITSTSNSTLQGLENREGGVCQTRSMKIIMKVGQDPNAVPPEQLTTTRPSKEADNTGKIATFGPWNGPVENPGKSDTNLSDKPTAGGGVDGFFNSKIAVFAAIGAGCVIFILIIIFLVVLLIKIRKRHRKHTQQRAAALSLSTLASPKCSGNAGSEPSDIIIPLRTTENNYCPHYEKVSGDYGHPVYIVQEMPPQSPANIYYKV
B2: Signal transducer and activator of transcription 3 (Rattus norvegicus (Rat)), P52631 (parent)
chain: MAQWNQLQQLDTRYLEQLHQLYSDSFPMELRQFLAPWIESQDWAYAASKESHATLVFHNLLGEIDQQYSRFLQESNVLYQHNLRRIKQFLQSRYLEKPMEIARIVARCLWEESRLLQTAATAAQQGGQANHPTAAVVTEKQQMLEQHLQDVRKRVQDLEQKMKVVENLQDDFDFNYKTLKSQGDMQDLNGNNQSVTRQKMQQLEQMLTALDQMRRSIVSELAGLLSAMEYVQKTLTDEELADWKRRQQIACIGGPPNICLDRLENWITSLAESQLQTRQQIKKLEELQQKVSYKGDPIVQHRPMLEERIVDLFRNLMKSAFVVERQPCMPMHPDRPLVIKTGVQFTTKVRLLVKFPELNYQLKIKVCIDKDSGDVAALRGSRKFNILGTNTKVMNMEESNNGSLSAEFKHLTLREQRCGNGGRANCDASLIVTEELHLITFETEVYHQGLKIDLETHSLPVVVISNICQMPNAWASILWYNMLTNNPKNVNFFTKPPIGTWDQVAEVLSWQFSSTTKRGLSIEQLTTLAEKLLGPGVNYSGCQITWAKFCKENMAGKGFSFWVWLDNIIDLVKKYILALWNEGYIMGFISKERERAILSTKPPGTFLLRFSESSKEGGVTFTWVEKDISGKTQIQSVEPYTKQQLNNMSFAEIIMGYKIMDATNILVSPLVYLYPDIPKEEAFGKYCRPESQEHPEADPGSAAPYLKTKFICVTPTTCSNTIDLPMSPRTLDSLMQFGNNGEGAEPSAGGQFESLTFDMDLTSECATSPM
partner: B1 chain

In one experiment the parent is B1. Particulars: with stat3_rat Stat3, P52631.
For the variant MEGLRRLLGLLLVLYRLCSALGKNLEPVTWNSQNPRFISGKGLVLYPEIGDRLDIICPKGDSSQPYEYYKLYMVRRDQLEACSTVIDPNVLVTCNQPGKEYRFTIKFQEFSPNYMGLEFRRNQDYYITSTSNSTLQGLENREGGVCQTRSMKIIMKVGQDPNAVPPEQLTTTRPSKEADNTGKIATFGPWNGPVENPGKSDTNLSDKPTAGGGVDGFFNSKIAVFAAIGAGCVIFILIIIFLVVLLIKIRKRHRKHTQQRAAALSLSTLASPKCSGNAGSEPSDIIIPLRTTENNFCPHYEKVSGDYGHPVFIVQEMPPQSPANIYYKV [Y296F;Y312F], the “effect of a mutation on the interaction” value is recorded as “decreasing interaction strength”. On the same count and under the same terms, as for MEGLRRLLGLLLVLYRLCSALGKNLEPVTWNSQNPRFISGKGLVLYPEIGDRLDIICPKGDSSQPYEYYKLYMVRRDQLEACSTVIDPNVLVTCNQPGKEYRFTIKFQEFSPNYMGLEFRRNQDYYITSTSNSTLQGLENREGGVCQTRSMKIIMKVGQDPNAVPPEQLTTTRPSKEADNTGKIATFGPWNGPVENPGKSDTNLSDKPTAGGGVDGFFNSKIAVFAAIGAGCVIFILIIIFLVVLLIKIRKRHRKHTQQRAAALSLSTLASPKCSGNAGSEPSDIIIPLRTTENNFCPHYEKVSGDFGHPVFIVQEMPPQSPANIYYKV [Y296F;Y307F;Y312F], the entry is “decreasing interaction strength”.

The variants in another experiment derive from B2. Particulars: with efnb1_xenla efnb1, O13097.
On to R609L, for which the “effect of a mutation on the interaction” value is listed as “disrupting interaction strength”.

For the origin of these results see IntAct's records for PubMed 17954917.
